Experiment: yeast display, Sf9 membrane polyspecificity reagent, FACS + sequencing; frameworks hold sequencing errors
How it was run: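 Genes from sorted yeast were amplified by colony PCR, read by MiSeq 2 × 250 sequencing and filtered on CDR length. These cells carried a synthetic nanobody library in Saccharomyces cerevisiae BJ5465 and were sorted by FACS into low and high (top ~1%) gates on anti-HA and streptavidin fluorescence. Polyreactivity is labelled according to the gate of origin.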

Sequence | polyreactivity (PSR sort gate)
QVQHVESRGGLVQAGGSLRLSCAASGSTIISNAQGWYRLAPGKERELVASIRSSGSTNYADSVKGRFTISRDNAKNTVYLKMNSLKPEDTAVYYCAAGSYWVQFQYDYWGQGTQVTVSS | low polyreactivity
QVQHVESVGGLVQAGGSLRLSCAASGSIFFWYDMGWYRQAPGKERELVASISSGGSTYYADSVKGRFTISRDNAKNTVYLQMNSLKPEDNAVYYCNAKSWSPAKSFSFFRFDYWGQGTQVTVSS | low polyreactivity
QVQHVESVGGLVQAGGSLRLSCASSGRTLFYYTMRWYRQARGTERELVAAISSGDSTNYADSVKGRFTISRDNAKNTVYLHMNSLKPEDTAVYYCAARFYQIRRRYDYWGQGTQVTVSS | low polyreactivity
QVQHVQSGGGLVQAGGSLPLSCDASASIFKYYTMGWYRQAPGKERELVATINFSGASTYYADSVKGRFTISRDNAKNTVYLQINSLKPEDTAVYYCAAVSSSTYRYYYWGQGTQVTVSS | high polyreactivity
QVQIEESGGGLVQAGGSLRLSCAASGFIFVWYAMGWYRQAPGKERELVAAISRDGDTNYADSVKGRFTISRDNAKNTVYLQMNSLKPEDTAVDYCARTYIYSGRIYNYGYWGQGTQVTVSS | high polyreactivity
QVQIEESGGGLVQAGGSLRLSCAASGNIFPGNDMGWYRQAPRKERELVAAITSRDGSTYYADSVKGRFTISRDNAKNTVYLQMNSLKPEDTAVYYCNTDPDLYYLATAGYWSHDYWGQGTQVTVSS | low polyreactivity
QVQIEESGGGLVQAGGSLRLSCAASGSIFVVYALGWYRPAPGKERELVAGISRNGGRTYYADSVKGRFTISRDNAKITVYLQMNILKPEDTAVYYCNAYRPSRHDYWGQGTQVTVSS | high polyreactivity
QVQIEESGGGLVQAGGSLRLTCAASGRIFYLNAMGWYRQAPGKERELVAGITNSTTGTYYADSVKGRFTISRDNAKNSVYLQMNSLKPEDTAVFYCNTDVAYEEPVETYDYWGQGTQVTVSS | low polyreactivity
QVQIGESGGGLVQAGGSLRLSCAACGFIFYRYAMGWYRQAPGKERELVAAISWSGGTTYYADSVKGRFTISRDNAKNTDYLQMNSLKPEDTAVYYCNARYPRSSPFGYWGQGTQVTVSS | high polyreactivity
QVQILESGGGLVKAGGSLRLSCAASGYTFYANAMGWYRKAPGKEREFVASITWSGGSTYYADSVKGRFTISRDNAKNTVYLQMNSLKPEDTAVDYCAADVIGDLRWYRDEYLGQGTQVTVSS | low polyreactivity
QVQIVDSCGGLVQSGGSLRLSCDASGSTFLTNSMGWYRQAPGKERELVAAITLRGGRTYYADSVKGRFTISRDNALNTVYLQMNSLKPEDSAVYYCNARNYYYPSDRDYWGQGTQVTVSS | low polyreactivity
QVQIVDSGGGLVQAVGSLRLSCAASGSIIKKYAMGWYRQAPGKERELVAAISSTCGSTKYADSVKGRFTISRDNAKNTVYLQMNSLKAEDTAVYYCAVRYKWPYDYWGQGTQVTVSS | high polyreactivity
QVQIVESGGALVQAGCSLRLSCAASGSTFWYYVMGWYRQAPGKERELVAAISIVGSTYYADSVKGRFTLSRDNAKNTVYLQMNSLKPEDTAVYYCAADIYQYGYDYWGQGTQVTVSS | low polyreactivity
QVQIVESGGALVQAGGSLRFSCAASGSIFFSNTRGWYRQAPGKEREFVAAITWSTGNTYYADSVKGRFTISRDNAKNTVYLQMNSLKPEDTAVYYCYAEYLVITWYGGVEFDYWGQGTQVTVSS | low polyreactivity
QVQIVESGGGLDQAGGSLRLSCAASGRTFVSNDMGRYRQAPGKERELVATISSGASTYYADSVKGRFTISRDNAKTTVYLQMISLKPEDNAVYYCAAEDLVFGGGYDYWGQGTQVNVSS | low polyreactivity
QVQIVESGGGLDQAGGSLRLSCAATGSTFYWNAMGWYRQAPWKERELVAAISSGGSTYYADSVKGRFTISRDNAKNTVYVQMNSLKPEDTAVYYCAAEWYPYPWGYGYWGQGTQVTVSS | low polyreactivity
QVQIVESGGGLFQAGGSIRLSCSASGFTFAFYSMGWYRQAPGKERQLVAAISWSGGSTYYADSVKWRFTISRDNAKNTVYLQMNSLKPEDNAVYYCNTDRGPIGDHYDYWGQGTQVTVSS | high polyreactivity
QVQIVESGGGLFQAGGSRRLSCAASGVMFSYYAMGWYRQAPGKDRELVAAISRRVGSTYYADSVKGRFTISRDNAKNTVYLQMNSLITQVTAVYYWNAYLYSRYEFDYWVQGTQVTVSS | high polyreactivity
QVQIVESGGGLLQAGGSLRLSCAASGSTFERYAMGWYRQAPWKERELVAAIDSSGGTTYYADSVKGRFTISRDNAKNTDYLQMNSLKPEDTAVYYCAADPGYYSVAYDYWGQGTQVTVSA | low polyreactivity
QVQIVESGGGLVHAGGSLRLSCAASGRIFPDYAMGWYRQAPGKERELVATISYSGGNTNYADSVKGRFTISRDNAKNTVYLQMNSLKPEDTAVYYCNTDWYLPRYVLLGYFSGTEDYWGQGTQVTVSS | low polyreactivity
QVQIVESGGGLVQAAGSLRLTFAASGIIFYIYPMGWYRPAPGKERELVASISFSGTSTYYADSVKGRFTISRDNAKNTVYIQMHSLKPEDTAVYYCAAGARWRRALAVKPYQKYGYWGQGTQVTVSS | low polyreactivity
QVQIVESGGGLVQAGCSLRLSCAASGSTFLSNAMGLYRQAPGKERELVATNSFSRATYADSVKGRFTISRDNAKNTVYLQMNSLKPVDTAVYYCNRATINFSGKGDTAYDYWGQGTQVTVSS | low polyreactivity

Sequence | polyreactivity (PSR sort gate)
QVQIVESGGGLVQAGGSHRLSCAATGLTFKYYAMGWYIQAPGKERELVAAISRSGGSTYYADSVKGRFTISRDNAKNTVYLQKNSLKPEDTAVYYCNARAGRYYSVYYPGDYWGQGTQVTVSS | high polyreactivity
QVQIVESGGGLVQAGGSIRLSCAASGTTFNLYAMGWYRQAPGKERQLVAVISWSGGSTYYADSVKGRFTISRDNAKNTVYLQMNSLKPEDTAVYYCAAEYYQWLYPYNEYDYWGQGTQVTVSS | high polyreactivity
QVQIVESGGGLVQAGGSLRISCAASGRTIHLYDMGWYRQAPGKERELVAAITWSSGRTYYADSVKGRVTISRDNAKNTVYVQMNILKPEDTEVYYCAADVWGGLLPGYDYWGQGTQVTVSS | high polyreactivity
QVQIVESGGGLVQAGGSLRISCAASGYIFLPYAMGWYRQAPGKERELVADITSVGRTYYADSVKGRFTISRDNEKNTVYLQMNSLKPEDTAVYYCAKRHSLGYGRSRYSSGYDYWGQGTQVTVSS | high polyreactivity
QVQIVESGGGLVQAGGSLRLSCAASGFIFPANAMGWYRQAPGKEREFVAVISYSGGRTYYADSVKGRFTISRDNAKNTVYLQMNSLKPEDTSVYYCNVVRVATWGYDYWGQGSQVTVSS | low polyreactivity
QVQIVESGGGLVQAGGSLRLSCAASGFIFQAYAMGWYRQAPGKERELVAAISSTSGRTYYADSVKGRFTISRDNAKNTVYLQMNSLKPEDTAVYYCARAVSSRNSGEYHYWGQGTQVTVSS | high polyreactivity
QVQIVESGGGLVQAGGSLRLSCAASGFIFRRNAMGWYRQAPGKERELVATIRASGGRTYYADSVKGRFTISRDNAKNTVYLQRNSLKPEDTAVYYCNAGKAPYLRYDYWGQGTEVTVSS | high polyreactivity
QVQIVESGGGLVQAGGSLRLSCAASGFIFYYYDMGWYRQAPWKERELVAVLTESGSSTYYADSVKGRFTITRDNAKNNVYLQMNSLKPEDTAVYYCAADGRASVGGLGDDYWGQGTQVTVSS | low polyreactivity
QVQIVESGGGLVQAGGSLRLSCAASGFIIGKYTMGWYRQAPGKEREFVAAIRRSGASTYYADSVKGRFTISRDNAKNTVYLQMNSLKPEDTAVYYCSQAGYSPVYGYWGQGTQVTVSS | high polyreactivity
QVQIVESGGGLVQAGGSLRLSCAASGIIFDGYAMGWYRQAPGKERELVAGITIGDITYYADSVKGRFTISRDNAKITVYLQMNSLKPEDTAVYYCAADSYYYQTAYDYWGQGTQVTVSS | low polyreactivity
QVQIVESGGGLVQAGGSLRLSCAASGLTFYQNAMGWYRQAPGKERELVAAITRSGGSTYYADSVKGRFTISRDNAKNTVYLQMNSLKPEDTAVYYCAARGGLSRRYEYWGQGTQVTVSS | high polyreactivity
QVQIVESGGGLVQAGGSLRLSCAASGRIFAGYAIGWYRQAPGKERELVAAISSGGSTYYADSVKGRFTISRDNAKNTVYLQMNSLKPEDTAVYYCSAVGRRVYGTKFYYWGQGTQVTFSS | high polyreactivity
QVQIVESGGGLVQAGGSLRLSCAASGRIFDYYTMGWYRQAPGKERELVASISDGGRTNYADSVKGRFTISRDNAKNTVYLQMNSLKPEDTAVYYCAADFAPVAFDYWGQGTQVTVSS | low polyreactivity
QVQIVESGGGLVQAGGSLRLSCAASGRIFFVNTKGWYRQAPGKERELVATISWSGGSTYYADSVKGRFTISRDNAKNTVYLQMNSLKPEDTAVYYCNRSLTGYDELGYPVPYTYDYWGQGTQVTVSS | low polyreactivity
QVQIVESGGGLVQAGGSLRLSCAASGRIFLPYAMGWYRQAPGKERELVAAITQSGVITSYADSVKGRFTISRDNAKNTVYLQMNSLKPEDTAVYYCATVRTVIVFRFPYSYGYWGQGTQVTVSS | high polyreactivity
QVQIVESGGGLVQAGGSLRLSCAASGRIRSYAMGWYRQAPGKERELVAAISSRGGSTYYADSVKGRFTISRDNAKNTVYLLMNSLKPEDTAVYYCAKGGYCGQGTQVTVSS | high polyreactivity
QVQIVESGGGLVQAGGSLRLSCAASGRTFGVYAMGWYRQAPAKESTYYADSVKGRFTISRDNAKNTVYLQMNSLKPEDTAVYYCNARGGFGYITMDYWGQGTQVTVSS | low polyreactivity
QVQIVESGGGLVQAGGSLRLSCAASGRTFWSYAMVWYRPAPGKEWELVATIKDSDGSTYADSVKGRFKISRDNAKNTVYLQMNSLKPEDTAVYYWIAKTRAGYYFGYGYWGQVTQVTVSS | low polyreactivity
QVQIVESGGGLVQAGGSLRLSCAASGRTLDVYAMGWDRQAPGKERELVARITSGGSTNYADSVKGRFTISRDNAKNTVYLQMNSLKPEDTAVYYCNAVVYPRPYTRPRYRYDYWGQGTQVTVSS | high polyreactivity
QVQIVESGGGLVQAGGSLRLSCAASGRTVKFYAMGWYRQAPGKERELVARITSNSGSTYYADSVKGRFTISRDNAKNTVYLQMNSLKPEDTAVYYCAARGRYRQFNYWGQGTQVTVSS | high polyreactivity
QVQIVESGGGLVQAGGSLRLSCAASGRTVVYNSMGWYRQAPGKERELVAAITRSGDSSYYADSVKGRFSISRDNAKNPVYLQMNSLKPEDTAVYYCNAVSKRYWLMDYWGQGTQVTVSS | high polyreactivity
